Measurements: PMC12363196, “High level of carbapenem resistance and transmission ability of blaIMP-26 in multidrug-resistant Enterobacter xiangfangensis isolates from China” (mSystems, 2025)

Tests used:
Assay in all cases: purified protein
Conditions in all cases: 50 mM HEPES pH 7.5, 250 mM NaCl, 100 µM ZnCl2, 37 °C, BSA 20 µg/mL in dilution buffer
[1] = test system: C[C@@H](O)[C@H]1C(=O)N2C(C(=O)O)=C(S[C@@H]3CN[C@H](C(=O)N(C)C)C3)[C@H](C)[C@H]12
[2] = test system: CO/N=C(\C(=O)N[C@@H]1C(=O)N2C(C(=O)[O-])=C(C[N+]3(C)CCCC3)CS[C@H]12)c1csc(N)n1
[3] = test system: C[C@@H](O)[C@H]1C(=O)N2C(C(=O)O)=C(SCCN=CN)C[C@H]12
[4] = test system: CC(C)(O/N=C(\C(=O)N[C@@H]1C(=O)N2C(C(=O)[O-])=C(C[n+]3ccccc3)CS[C@H]12)c1csc(N)n1)C(=O)O
[5] = test system: CO/N=C(\C(=O)N[C@@H]1C(=O)N2C(C(=O)O)=C(COC(C)=O)CS[C@H]12)c1csc(N)n1

IMP-26 (Pseudomonas aeruginosa)
Km [1]: 218.8 µM
kcat [1]: 75.08 s⁻¹
kcat/Km [1]: 343000 M⁻¹ s⁻¹
Km [2]: 497.1 µM
kcat [2]: 37.58 s⁻¹
kcat/Km [2]: 76000 M⁻¹ s⁻¹
Km [3]: 932.6 µM
kcat [3]: 159.51 s⁻¹
kcat/Km [3]: 171000 M⁻¹ s⁻¹
Km [4]: 677.2 µM
kcat [4]: 38.86 s⁻¹
kcat/Km [4]: 57000 M⁻¹ s⁻¹
Km [5]: 192.1 µM
kcat [5]: 31.92 s⁻¹
kcat/Km [5]: 166000 M⁻¹ s⁻¹
